Numbered stars: 1 amine (or outer) side, 2 acyl side, 3 side chain; on linkers, the order of the positions; unused ones are H or OH. Square brackets hold non-standard residues; d marks the D form. Side chains are listed from the residue outwards. Ends that are not written are not given here. * marks the point of attachment. C20 diacid = O=C(O)CCCCCCCCCCCCCCCCCCC(=O)*; C18 diacid = O=C(O)CCCCCCCCCCCCCCCCC(=O)*; αMePhe(2-F) = C[C@](N)(Cc1ccccc1F)C(=O)O; γGlu = O=C(O)[C@H](CCC(=O)[*:2])N[*:1]; αMeL = CC(C)C[C@](C)(N)C(=O)O; AEEA = NCCOCCOCC(=O)O; Aib = CC(C)(N)C(=O)O
Target: T1, human gastric inhibitory peptide receptor (hGIPR) (Homo sapiens, UniProt P48546)
T1 construct: expressed in transfected cells; host or cells: HEK293
T1 sequence (P48546 22-466): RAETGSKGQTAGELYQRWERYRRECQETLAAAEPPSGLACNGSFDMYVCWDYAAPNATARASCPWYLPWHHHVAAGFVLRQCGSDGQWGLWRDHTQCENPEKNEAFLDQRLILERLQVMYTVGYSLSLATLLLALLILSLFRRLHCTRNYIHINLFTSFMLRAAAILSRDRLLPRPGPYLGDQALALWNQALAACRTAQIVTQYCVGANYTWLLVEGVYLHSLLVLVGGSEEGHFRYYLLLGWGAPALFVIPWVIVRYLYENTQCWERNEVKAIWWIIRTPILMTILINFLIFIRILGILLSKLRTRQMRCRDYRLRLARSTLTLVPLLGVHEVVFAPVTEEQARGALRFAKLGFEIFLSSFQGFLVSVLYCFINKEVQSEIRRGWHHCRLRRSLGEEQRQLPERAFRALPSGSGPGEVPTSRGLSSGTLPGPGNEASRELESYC
Test: cAMP pharmacological functional assay in presence of 0.1% casein, hGIPR
Assay type: cell-based
Conditions: ratio of hGIPR to hGLP1R cAMP EC50 ratios

Y-Aib-EGT-αMeF(2F)-TSDHSI-αMeL-LDEK((2-[2-(2-Amino-ethoxy)-ethoxy]-acetyl)2-(γGlu)-CO—(CH2)16—CO2H)AQ-Aib-HFI-(D-Glu)-YLIEGG-NH2 (Y[Aib]EGT[αMePhe(2-F)]TSDHSI[αMeL]LDEK([AEEA-AEEA-γGlu-C18 diacid])AQ[Aib]HFI[dE]YLIEGG-NH2; N-terminus assumed; SMILES CC[C@H](C)[C@H](NC(=O)[C@H](CC(C)C)NC(=O)[C@H](Cc1ccc(O)cc1)NC(=O)[C@@H](CCC(=O)O)NC(=O)[C@@H](NC(=O)[C@H](Cc1ccccc1)NC(=O)[C@H](Cc1c[nH]cn1)NC(=O)C(C)(C)NC(=O)[C@H](CCC(N)=O)NC(=O)[C@H](C)NC(=O)[C@H](CCCCNC(=O)COCCOCCNC(=O)COCCOCCNC(=O)CC[C@H](NC(=O)CCCCCCCCCCCCCCCCC(=O)O)C(=O)O)NC(=O)[C@H](CCC(=O)O)NC(=O)[C@H](CC(=O)O)NC(=O)[C@H](CC(C)C)NC(=O)[C@](C)(CC(C)C)NC(=O)[C@@H](NC(=O)[C@H](CO)NC(=O)[C@H](Cc1c[nH]cn1)NC(=O)[C@H](CC(=O)O)NC(=O)[C@H](CO)NC(=O)[C@@H](NC(=O)[C@](C)(Cc1ccccc1F)NC(=O)[C@@H](NC(=O)CNC(=O)[C@H](CCC(=O)O)NC(=O)C(C)(C)NC(=O)[C@@H](N)Cc1ccc(O)cc1)[C@@H](C)O)[C@@H](C)O)[C@@H](C)CC)[C@@H](C)CC)C(=O)N[C@@H](CCC(=O)O)C(=O)NCC(=O)NCC(N)=O) [Peptide 180]
[hGIPR/hGLP1R] EC50 Ratio: 6.27

Y-Aib-EGT-αMeF(2F)-TSDHSI-αMeL-LDEK((2-[2-(2-Amino-ethoxy)-ethoxy]-acetyl)2-(γGlu)-CO—(CH2)16—CO2H)AQ-Aib-HFI-(D-Glu)-YLIEGGPSSG-NH2 (Y[Aib]EGT[αMePhe(2-F)]TSDHSI[αMeL]LDEK([AEEA-AEEA-γGlu-C18 diacid])AQ[Aib]HFI[dE]YLIEGGPSSG-NH2; N-terminus assumed; SMILES CC[C@H](C)[C@H](NC(=O)[C@H](CC(C)C)NC(=O)[C@H](Cc1ccc(O)cc1)NC(=O)[C@@H](CCC(=O)O)NC(=O)[C@@H](NC(=O)[C@H](Cc1ccccc1)NC(=O)[C@H](Cc1c[nH]cn1)NC(=O)C(C)(C)NC(=O)[C@H](CCC(N)=O)NC(=O)[C@H](C)NC(=O)[C@H](CCCCNC(=O)COCCOCCNC(=O)COCCOCCNC(=O)CC[C@H](NC(=O)CCCCCCCCCCCCCCCCC(=O)O)C(=O)O)NC(=O)[C@H](CCC(=O)O)NC(=O)[C@H](CC(=O)O)NC(=O)[C@H](CC(C)C)NC(=O)[C@](C)(CC(C)C)NC(=O)[C@@H](NC(=O)[C@H](CO)NC(=O)[C@H](Cc1c[nH]cn1)NC(=O)[C@H](CC(=O)O)NC(=O)[C@H](CO)NC(=O)[C@@H](NC(=O)[C@](C)(Cc1ccccc1F)NC(=O)[C@@H](NC(=O)CNC(=O)[C@H](CCC(=O)O)NC(=O)C(C)(C)NC(=O)[C@@H](N)Cc1ccc(O)cc1)[C@@H](C)O)[C@@H](C)O)[C@@H](C)CC)[C@@H](C)CC)C(=O)N[C@@H](CCC(=O)O)C(=O)NCC(=O)NCC(=O)N1CCC[C@H]1C(=O)N[C@@H](CO)C(=O)N[C@@H](CO)C(=O)NCC(N)=O) [Peptide 179]
[hGIPR/hGLP1R] EC50 Ratio: 3.40

Y-Aib-EGT-αMeF(2F)-TSDHSI-αMeL-LDEK((2-[2-(2-Amino-ethoxy)-ethoxy]-acetyl)2-(γGlu)-CO—(CH2)16—CO2H)AQ-Aib-TFI-(D-Glu)-YLIEGGPSSGAPPPS-NH2 (YXEGTXTSDHSIXLDEKAQXTFIXYLIEGGPSSGAPPPS; Aib, αMeF(2F), αMeL, D-Glu; C18 diacid lipidated K; amide; (2)..(2) Xaa at position 2 is Aib; (6)..(6) Xaa at position 6 is alpha-methyl-Phe(2F); (13)..(13) Xaa at position 13 is alpha-methyl-Leu; MOD_RES (17)..(17) Lys at position 17 is chemically modified by conjugation of the epsilon-amino group of the Lys side chain with (2-[2-(2-amino-ethoxy)-ethoxy]-acetyl)2-(gamma-Glu)-CO-(CH2)16- CO2H; (20)..(20) Xaa at position 20 is Aib; (24)..(24) Xaa at positi) [Peptide 169]
[hGIPR/hGLP1R] EC50 Ratio: 8.97

Y-Aib-EGT-αMeF(2F)-TSDHSI-αMeL-LDEK((2-[2-(2-Amino-ethoxy)-ethoxy]-acetyl)2-(γGlu)-CO—(CH2)18—CO2H)AQ-Aib-EFIEYLIEGGPSSGAPPPS-NH2 (Y[Aib]EGT[αMePhe(2-F)]TSDHSI[αMeL]LDEK([AEEA-AEEA-γGlu-C20 diacid])AQ[Aib]EFIEYLIEGGPSSGAPPPS-NH2; N-terminus assumed; SMILES CC[C@H](C)[C@H](NC(=O)[C@H](CC(C)C)NC(=O)[C@H](Cc1ccc(O)cc1)NC(=O)[C@H](CCC(=O)O)NC(=O)[C@@H](NC(=O)[C@H](Cc1ccccc1)NC(=O)[C@H](CCC(=O)O)NC(=O)C(C)(C)NC(=O)[C@H](CCC(N)=O)NC(=O)[C@H](C)NC(=O)[C@H](CCCCNC(=O)COCCOCCNC(=O)COCCOCCNC(=O)CC[C@H](NC(=O)CCCCCCCCCCCCCCCCCCC(=O)O)C(=O)O)NC(=O)[C@H](CCC(=O)O)NC(=O)[C@H](CC(=O)O)NC(=O)[C@H](CC(C)C)NC(=O)[C@](C)(CC(C)C)NC(=O)[C@@H](NC(=O)[C@H](CO)NC(=O)[C@H](Cc1c[nH]cn1)NC(=O)[C@H](CC(=O)O)NC(=O)[C@H](CO)NC(=O)[C@@H](NC(=O)[C@](C)(Cc1ccccc1F)NC(=O)[C@@H](NC(=O)CNC(=O)[C@H](CCC(=O)O)NC(=O)C(C)(C)NC(=O)[C@@H](N)Cc1ccc(O)cc1)[C@@H](C)O)[C@@H](C)O)[C@@H](C)CC)[C@@H](C)CC)C(=O)N[C@@H](CCC(=O)O)C(=O)NCC(=O)NCC(=O)N1CCC[C@H]1C(=O)N[C@@H](CO)C(=O)N[C@@H](CO)C(=O)NCC(=O)N[C@@H](C)C(=O)N1CCC[C@H]1C(=O)N1CCC[C@H]1C(=O)N1CCC[C@H]1C(=O)N[C@@H](CO)C(N)=O) [Peptide 154]
[hGIPR/hGLP1R] EC50 Ratio: 4.80

Y-Aib-EGT-αMeF(2F)-TSDHSI-αMeL-LDEK((2-[2-(2-Amino-ethoxy)-ethoxy]-acetyl)2-(γGlu)-CO—(CH2)18—CO2H)AQ-Aib-TFI-(D-Glu)-YLIEGGPSSG-NH2 (Y[Aib]EGT[αMePhe(2-F)]TSDHSI[αMeL]LDEK([AEEA-AEEA-γGlu-C20 diacid])AQ[Aib]TFI[dE]YLIEGGPSSG-NH2; N-terminus assumed; SMILES CC[C@H](C)[C@H](NC(=O)[C@H](CC(C)C)NC(=O)[C@H](Cc1ccc(O)cc1)NC(=O)[C@@H](CCC(=O)O)NC(=O)[C@@H](NC(=O)[C@H](Cc1ccccc1)NC(=O)[C@@H](NC(=O)C(C)(C)NC(=O)[C@H](CCC(N)=O)NC(=O)[C@H](C)NC(=O)[C@H](CCCCNC(=O)COCCOCCNC(=O)COCCOCCNC(=O)CC[C@H](NC(=O)CCCCCCCCCCCCCCCCCCC(=O)O)C(=O)O)NC(=O)[C@H](CCC(=O)O)NC(=O)[C@H](CC(=O)O)NC(=O)[C@H](CC(C)C)NC(=O)[C@](C)(CC(C)C)NC(=O)[C@@H](NC(=O)[C@H](CO)NC(=O)[C@H](Cc1c[nH]cn1)NC(=O)[C@H](CC(=O)O)NC(=O)[C@H](CO)NC(=O)[C@@H](NC(=O)[C@](C)(Cc1ccccc1F)NC(=O)[C@@H](NC(=O)CNC(=O)[C@H](CCC(=O)O)NC(=O)C(C)(C)NC(=O)[C@@H](N)Cc1ccc(O)cc1)[C@@H](C)O)[C@@H](C)O)[C@@H](C)CC)[C@@H](C)O)[C@@H](C)CC)C(=O)N[C@@H](CCC(=O)O)C(=O)NCC(=O)NCC(=O)N1CCC[C@H]1C(=O)N[C@@H](CO)C(=O)N[C@@H](CO)C(=O)NCC(N)=O) [Peptide 167]
[hGIPR/hGLP1R] EC50 Ratio: 5.98

Y-Aib-EGT-αMeF(2F)-TSDHSI-αMeL-LDEK((2-[2-(2-Amino-ethoxy)-ethoxy]-acetyl)2-(γGlu)-CO—(CH2)18—CO2H)AQ-Aib-TFI-(D-Glu)-YLIEGGPSSGAPPPS-NH2 (YXEGTXTSDHSIXLDEKAQXTFIXYLIEGGPSSGAPPPS; Aib, αMeF(2F), αMeL, D-Glu; lipidated K; C-terminal amide; (2)..(2) Xaa at position 2 is Aib; (6)..(6) Xaa at position 6 is alpha-methyl-Phe(2F); (13)..(13) Xaa at position 13 is alpha-methyl-Leu; MOD_RES (17)..(17) Lys at position 17 is chemically modified by conjugation of the epsilon-amino group of the Lys side chain with (2-[2-(2-amino-ethoxy)-ethoxy]-acetyl)2-(gamma-Glu)-CO-(CH2)18- CO2H; (20)..(20) Xaa at position 20 is Aib; (24)..(24) Xaa at positi) [Peptide 168]
[hGIPR/hGLP1R] EC50 Ratio: 9.69

Y-Aib-EGT-αMeF(2F)-TSDHSI-αMeL-LDEK((2-[2-(2-Amino-ethoxy)-ethoxy]-acetyl)2-(εK)-CO—(CH2)16—CO2H)AQ-Aib-TFI-(D-Glu)-YLIEGGPSSGAPPPS-NH2 (YXEGTXTSDHSIXLDEKAQXTFIXYLIEGGPSSGAPPPS; Aib, αMeF(2F), αMeL, D-Glu; εK-lipidated K; amide; (2)..(2) Xaa at position 2 is Aib; (6)..(6) Xaa at position 6 is alpha-methyl-Phe(2F); (13)..(13) Xaa at position 13 is alpha-methyl-Leu; MOD_RES (17)..(17) Lys at position 17 is chemically modified by conjugation of the epsilon-amino group of the Lys side chain with (2-[2-(2-amino-ethoxy)-ethoxy]-acetyl)2-(epsilon-Lys)-CO-(CH2)16- CO2H; (20)..(20) Xaa at position 20 is Aib; (24)..(24) Xaa at posi) [Peptide 176]
[hGIPR/hGLP1R] EC50 Ratio: 4.71

Source: patent US12295987B2, “Method of using a GIP/GLP1 co-agonist for diabetes” (Eli Lilly and Company, priority 2018, dated 2025)
